Measurements published in article PMC5892705.

Columns and labels:
[1] = molecular target: human oxytocin receptor (human) (UniProt P30559)
[2] = molecular target: human oxytocin receptor (human) (UniProt P30559); remark: listed apart in the source
[3] = molecular target: human vasopressin V1a receptor (human) (UniProt P37288)
Chain of human vasopressin V1a receptor (human) (P37288 whole entry): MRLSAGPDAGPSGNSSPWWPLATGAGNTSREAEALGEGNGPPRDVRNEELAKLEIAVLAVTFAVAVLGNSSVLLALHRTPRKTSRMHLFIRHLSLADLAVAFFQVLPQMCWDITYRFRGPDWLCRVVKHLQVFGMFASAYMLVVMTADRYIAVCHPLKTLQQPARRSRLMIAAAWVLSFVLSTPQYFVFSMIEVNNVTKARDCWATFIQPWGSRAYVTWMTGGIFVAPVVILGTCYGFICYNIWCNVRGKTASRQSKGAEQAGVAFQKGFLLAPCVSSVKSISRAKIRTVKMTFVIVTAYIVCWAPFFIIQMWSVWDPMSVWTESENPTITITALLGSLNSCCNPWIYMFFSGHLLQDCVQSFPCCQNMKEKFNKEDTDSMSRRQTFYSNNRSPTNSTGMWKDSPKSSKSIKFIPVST

Chain of Oxytocin (P01178 whole entry, looked up): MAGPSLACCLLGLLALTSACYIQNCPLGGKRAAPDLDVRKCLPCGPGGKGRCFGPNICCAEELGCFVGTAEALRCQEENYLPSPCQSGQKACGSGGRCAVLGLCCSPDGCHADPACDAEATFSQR
Chain of human oxytocin receptor (human) (P30559 whole entry): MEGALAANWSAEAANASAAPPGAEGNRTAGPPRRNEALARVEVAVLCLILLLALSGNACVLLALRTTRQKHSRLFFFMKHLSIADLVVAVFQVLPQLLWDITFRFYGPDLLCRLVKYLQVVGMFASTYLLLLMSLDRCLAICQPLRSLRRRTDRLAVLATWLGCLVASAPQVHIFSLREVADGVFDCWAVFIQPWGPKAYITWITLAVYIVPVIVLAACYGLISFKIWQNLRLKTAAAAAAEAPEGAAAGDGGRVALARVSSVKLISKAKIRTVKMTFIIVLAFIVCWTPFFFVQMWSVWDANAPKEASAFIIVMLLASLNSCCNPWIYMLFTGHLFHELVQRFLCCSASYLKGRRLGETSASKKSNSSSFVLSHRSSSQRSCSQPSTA

| FLIPR Ca2+ mobilization, Emax [1] [%] | tissue bath, contraction amplitude of strips of pregnant human myometrium, EC50 [2] [nM] | maximal intracellular Ca2+ in human cardiomyocytes (FLIPR), EC50 [3] [nM] | Substance |
| --- | --- | --- | --- |
| 59 | – | – | d[Se-Se]-OT-OH (peptide) |
| – | 1.14 | 174 | Oxytocin (from UniProt P01178 20-28) (peptide) |
